Measurements as given in the supplement of paper PMC10567573.
± gives the standard deviation.

Test: protein stability index of a GFP-peptide fusion (GPS, HEK-293T) (PSI 1-6); higher = more stable
[1] = treatment: DMSO, c terminus: a fixed tail appended
[2] = treatment: MLN4924 1 uM, 8 h, c terminus: a fixed tail appended
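Note: 24-mer peptide tiles fused after GFP, lentivirally expressed, FACS-sorted into six equal bins by GFP/DsRed ratio, decoded by Illumina sequencing, PSI is the read-weighted mean bin number.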

Sequence	protein stability index [1]	protein stability index [2]	protein stability index (treatment: DMSO, c terminus: native)	protein stability index (treatment: MLN4924 1 uM, 8 h, c terminus: native)
PNDEVHPLLGVKGDGKSKKKQAGR [RBBP5]	5.35 ± 0.27	5.2 ± 0.35	–	–
QRTAKGKPVLAKDSSNPYPNFNFN [AASDHPPT]	3.43 ± 0.45	3.74 ± 0.15	–	–
DCPKIVEPHGKMFNEQTWEVSQQD [ZSCAN9]	5.16 ± 0.089	5.18 ± 0.11	–	–
DELDMSPGDPKWLDVIERDLHRQF [TBC1D10A]	3.84 ± 0.21	3.8 ± 0.12	–	–
QVTCSILAYLPFKLEKSIDSYYRL [PCDHGA10]	2.79 ± 1.1	2.05 ± 0.81	–	–
KQNGRVAKVKGHRSQKHKERIRLL [C18orf25]	3.9 ± 0.28	3.97 ± 0.29	–	–
ITLKYPHYFPVMKKCCIPETRRRM [NLN]	2.1 ± 0.27	1.97 ± 0.37	–	–
DALDKIRYESLTDPSKLDSGKELK [HSP90AB1]	5.06 ± 0.1	5 ± 0.16	–	–
ESTTKESSEASQLEDAAGGDSASE [FBXO34]	5.61 ± 0.34	5.71 ± 0.12	–	–
GLALCPEVQDLLEGCELPDLPSSL [SMG5]	4.05 ± 0.25	3.96 ± 0.25	–	–
IYLINQKWFGRKRTLSAFLCLGGL [SLC22A15]	3.15 ± 0.26	3.01 ± 0.56	–	–
MYDNELWAPASEGLKPGPEDGPGK [SERTAD1]	4.99 ± 0.46	5.25 ± 0.22	–	–
QTFQWVKLPATMPEPVYFHCAAVT [KLHDC10]	2.28 ± 0.36	2.33 ± 0.39	–	–
QVAKTKQQIEEQRVQVQVVERAQQ [FLOT1]	5.18 ± 0.16	5.32 ± 0.15	–	–
AVATIVKPLSAIPQPTITKQEVI [HNF4A]	–	–	2.43 ± 0.28	2.37 ± 0.19
NKRKTYTESYIARPDGDCASSLNG [ZC2HC1A]	4.18 ± 0.23	4.44 ± 0.3	–	–
AMFTGGMKEQDLMCIKLHGVSKVG [KLHL13]	2.54 ± 0.42	2.58 ± 0.33	–	–
YPCVLATEGFTSGRHYWEVEVGDK [TRIM39]	2.59 ± 0.62	3.27 ± 0.68	–	–
VRVALDYEAGQVTLHNAQTQEPIF [TRIM15]	2.29 ± 0.33	2.51 ± 0.33	–	–
THTKEQILELVVLEQFVAILPKEL [ZNF24]	3.04 ± 0.72	2.54 ± 0.66	–	–
LSMDEKVELYRIKFKESFAEMNRG [COX4I1]	2.9 ± 0.2	2.97 ± 0.21	–	–
VRELVDKATNVVMNYSEIESKVRE [CLINT1]	4 ± 0.38	3.8 ± 0.37	–	–

Sequence	protein stability index [1]	protein stability index [2]	protein stability index (treatment: DMSO, c terminus: native)	protein stability index (treatment: MLN4924 1 uM, 8 h, c terminus: native)
APPLQAETPGSAVDYPLHDLVLHT [TNXB]	4.16 ± 0.23	4.17 ± 0.2	–	–
LLEGTPSSASEGDEDLRRQMQDDE [PALM]	5.45 ± 0.25	5.49 ± 0.28	–	–
VSTFLSGVMLTWPDGLMYQKFRNQ [TMEM120A]	2.85 ± 0.82	2.36 ± 0.54	–	–
DQERIKVERKRLRNRLAATKCRKR [JUNB]	4.83 ± 0.19	4.53 ± 0.17	–	–
PYPVLFHNIFLLGGSSTSERCLLN [NLN]	3.23 ± 1.5	2.59 ± 0.8	–	–
LMRHMATHSPQKSHQCAHCEKTFN [PLAGL1]	3.24 ± 0.3	3.2 ± 0.28	–	–
SNRHGHTCLMISCYKGHKEIAQYL [FEM1C]	2.68 ± 0.55	2.43 ± 0.39	–	–
ISPWNLPLYLLTWKIAPAMAAGNT [ALDH8A1]	3.06 ± 0.53	3.05 ± 0.62	–	–
EAACNDVDRWPAPVPGKTLHLPIM [DENND6A]	3.52 ± 0.35	3.19 ± 0.37	–	–
IQNAHKNSTGSGRGKKLMVLTEPI [TPRG1]	3.89 ± 0.24	3.66 ± 0.28	–	–
CFQDFKEEKPQENKTWREQYLRLP [ELOA2]	3.15 ± 0.35	3.25 ± 0.41	–	–
VITIKSESTFKNTEISFILGQEFD [FABP4]	2.23 ± 0.53	2.4 ± 0.078	–	–
SLKEDLTQHKFICEQCGKCKCGEC [SPRY1]	5.32 ± 0.36	5.22 ± 0.14	–	–
GLGHGSTSRGGPWVGTGLAAALAG [CPOX]	3.17 ± 0.21	3.21 ± 0.29	–	–
GSGGTRGPPSRGGHMDDGGYSMNF [RBMX]	3.96 ± 0.24	4 ± 0.43	–	–
AELQCEVAALREEQKVLSRLVESL [RASAL3]	4.09 ± 0.23	3.94 ± 0.37	–	–
RGDIFERIVHLQETCDLGKIKPEA [NLN]	3.59 ± 0.37	3.6 ± 0.29	–	–
KPILLHQVEALAAAGVDHVILAVS [GMPPB]	2.55 ± 0.48	2.61 ± 0.5	–	–
TSFQWVTKWVDYSNKYGFGYQLSD [PLK2]	2.06 ± 0.57	2.08 ± 0.31	–	–
QAQQGRSSLVWLFSQLYLYSFISL [MCOLN1]	2.86 ± 0.46	3.09 ± 0.25	–	–
SPAAPYFLGSSFSPVRCGGPGDAS [WEE1]	3.06 ± 0.3	3.17 ± 0.35	–	–
ITWIAGAVTKDFKLTDKHETVVSY [ACSBG2]	2.3 ± 0.25	2.03 ± 0.33	–	–

Sequence	protein stability index [1]	protein stability index [2]	protein stability index (treatment: DMSO, c terminus: native)	protein stability index (treatment: MLN4924 1 uM, 8 h, c terminus: native)
VNMVDVAKALNRPPTYPTKYFGCE [EIF5]	2.56 ± 0.19	2.45 ± 0.18	–	–
CEALEDSDGRQDSPAGELPKTVQQ [MATN2]	5.55 ± 0.33	5.56 ± 0.17	–	–
QNFLDPGYPLPKLDMNFSLENREE [ZNF449]	5.02 ± 0.24	4.74 ± 0.29	–	–
ENFKGLAIPYLEHIIHVWEETGSR [VPS39]	2.52 ± 0.32	2.48 ± 0.4	–	–
PGSTRPHRSACSSAAVRGHPRALP [HAGHL]	3.19 ± 0.23	3.15 ± 0.24	–	–
ATNQCTIDKNRRKSCQACRLRKCY [ESR2]	3.39 ± 0.25	3.47 ± 0.18	–	–
NFEKLRLSLQDQVDTLTFQSQSLR [MTUS2]	3.01 ± 0.22	3.14 ± 0.37	–	–
EEVDVTSVDPIAAFCSSDEELEDS [RBBP5]	5.55 ± 0.2	5.62 ± 0.16	–	–
YHQGCLVNPTGNLPMWSNQTWNNS [NANOGP8]	2.5 ± 0.36	2.57 ± 0.066	–	–
TPGLGVVAVLLLFLVVREPPRGAV [SPNS1]	2.69 ± 0.44	3.28 ± 0.6	–	–
REVMESAVGNSSGSGQNEESPRKR [FBXO28]	5.51 ± 0.14	5.49 ± 0.38	–	–
DLLAYGAKAELPKYKSFNRTAMPY [MYOZ1]	2.42 ± 0.12	2.29 ± 0.19	–	–
VLRSWYEKNKHIFPASRWEPYDPE [FAM50A]	2.87 ± 0.078	3 ± 0.21	–	–
LYSRTGDIVEFVCKSGYHPTKSHS [CFHR2]	2.15 ± 0.16	2.45 ± 0.4	–	–
VDLDPTDGKLFPSDGFRDCKKGDP [ELF3]	5.31 ± 0.1	5.2 ± 0.25	–	–
IRVRGQRASRLQAPVLVAAPHSTF [LPCAT4]	2.6 ± 0.17	2.73 ± 0.22	–	–
TWESKNILAVSFAPLVQPSKNDNG [PCMTD1]	3.3 ± 0.41	3.6 ± 0.51	–	–
SKSADNQEYFERHRWPPVWYLKEE [RHOBTB1]	3.4 ± 0.29	3.43 ± 0.34	–	–
IGCKKPVSASGKEMDWAQMACHRC [SMG5]	3.04 ± 0.34	3.48 ± 0.28	–	–
KMVPRYDLNRHLDEMCANNDFVQV [FAN1]	2.81 ± 0.15	2.8 ± 0.46	–	–
PRSPECRMIPGQPPASARRLSVPR [IRX6]	4.47 ± 0.24	4.52 ± 0.12	–	–
